# US20090004212A1, “Tumour vaccines for MUC1-positive carcinomas” (priority 1997, published 2009)
# “And” between values parts separate entries of the source, which are not always exact repeats. Equal values may be shown once. No end group written: not given here. O‑glycan = not defined here
# Assays:
# [1] = target: T1, human 20S immunoproteasomes (Homo sapiens, UniProt P28062+P28065+P40306); assay: In vitro proteolysis of MUC1 repeat peptides and glycopeptides by immunoproteasomes; type: biochemical; conditions: for AHG 8 to -11 / PAP8 to -11 / SAP8 to -11: 8- to 11-meric fragments with this N-terminus, % of total 8- to 11-mers; for AVERAGE FRAGMENT LENGTH / NUMBER OF FRAGMENTS: digest by immunoproteasomes; for NUMBER OF FRAGMENTS: HPLC and MALDI-MS; for % of glycopeptide: glycosylated 8- to 11-meric fragments relative to total 8- to 11-mers; for 8-11 mers (%): relative to total amount of digestion products of immunoproteasomal cleavage
# T1 construct: purchased Immatics Biotechnologies (Tübingen, Germany)
# Procedure: A 1 mg/ml solution of immunoproteasomes prepared according to a published protocol (20) was purchased from Immatics Biotechnologies (Tübingen, Germany) and stored frozen at −80° C.
# Glycopeptides were incubated with 10 μg of human 20S immunoproteasomes (Immatics) for […], at 37° C., in 10 μl of digestion buffer (20 mM HEPES/KOH, pH 7.6 containing 2 mM Mg(CH3COO)2 and 1 mM DTT) as described (13). Digestion was stopped after 24 h by freezing the sample at −80° C. Human cathepsin-L was purchased from Sigma (Munich, Germany) and solubilized in 0.1 M sodium acetate, pH 5.5, containing 1 mM EDTA and 1 mM dithiothreitol (12). About 5 mU of enzyme were added to sialoglycopeptide substrates SGGP1 to SGGP5 (75-100 μM) in a total volume of 20 μl. The reaction mixtures were incubated at 37° C. for 24 h and 1 μl of trifluoroacetic acid was added to stop the reaction. The reaction products were cleaned by solid-phase extraction on ZipTipC18 pipette tips and 0.5 μl aliquots were applied onto the MALDI target for mass spectrometric analysis. Kinetic studies with the non-glycosylated 100-mer P1 were performed under the same conditions and the products were chromatographed on HPLC for purification and quantification.
# [2] = test system: DC2.4 mouse dendritic cells; assay: Cellular processing and cross-presentation in mouse dendritic cell line, peptides eluted from exosomal MHC; type: cell-based
# Procedure: Poly-lactic acid based vesicles were generated mixing two solutions: Solution A: 200 nmol of P2 peptide (1 mg) resolved in 3% cold water solution of poly-vinyl alcohol; Solution B: 5% poly-lactic acid in a mixture of ethanol and acetone (9:1, v/v). Solution B (30 ml) was slowly added to solution A (150 ml) under constant mixing and stirring overnight at room temperature. The next day the mixture was centrifuged at 10.000×g for 10 min and washed three times with PBS (200 ml), followed by centrifugation steps as mentioned previously. The generated vesicles were resuspended in 330 μl of PBS and added to media of 4×108 DC2.4 mouse dendritic cells growing confluent in nine cell culture flasks (300 cm^2). The cells were grown as usual, but in exosome-depleted medium.
# Cells were incubated with PLA-vesicles for 24 h at 37° C. and 5% CO2. The cell culture supernatant was collected and exosomes were isolated by ultracentrifugation (see below). Isolated exosomes were resuspended in 100 μl 0.1% TFA/H2O. Acidification of exosomes denatures tertiary MHC complex and releases bound peptide epitopes. The solution was shortly spun and injected on a HPLC narrow-bore ODS column for separation of eluted peptides and glycopeptides. Fractions were collected manually, dried and analyzed by MALDI-TOF-MS as described. Molecular masses of detected ions were analyzed by the FindPep software and by nanospray ESI-MS/MS analyses.
# Exosomes were isolated from FCS or cell culture supernatant by subsequent centrifugation steps: 10 min/1200 g; 30 min/10000×g; 30 min/20.000×g; and 60 min/[…]. The exosomes were pelleted in the final centrifugation step, washed with PBS and used for further analyses. For the depletion of FCS from exosomes, exosomes from serum were pelleted by ultracentrifugation at 110.000×g for 1 h.
# HLA-A0201 = target: T2, HLA-A0201 (Homo sapiens, UniProt P04439, D140Y/D185E/D98H/E176V/E277Q/G131W/G231S/I119V/I121R/I166T/I218V/L300P/L318F/N151K/N90K/P208A/P217A/Q86G/Q94H/R138H/R169H/T345S); assay: MHC stabilization assay on T2 cells; type: binding; conditions: for ligation strength (binding to HLA-A0201): T2 cells, 100 μg peptide, 16 h, W6/32 antibody, FACS; for change of ligation strength by introduction of GalNAc: glycosylated versus non-glycosylated form
# T2 construct: endogenous in cells; host or cells: T2 cell line (TAP-deficient)
# Procedure: MHC stabilization assay is based on the increased affinity of HLA-A, -B, -C specific monoclonal W6/32 antibody for the stabilized conformation of MHC molecules after binding of a peptide ligand. The T2 cells express empty MHC molecules with short half-life.
# For MHC stabilization assay T2 cells were grown in IMDM medium supplemented with 2% FCS. T2 cells were washed in PBS from the residual serum, and resuspended at 1×10^6/ml of IMDM supplemented with 0.1% FCS and 25 mM HEPES. Half of a million of cells were incubated in 48-well cell culture plate with 1 μg of […]2-microglobulin and 100 μg of peptide for 16 h at 27° C. and 8% CO2. Cells were washed with 5 ml PBS, centrifuged at 180×g for 5 min and the pellet was resuspended in 10 μl PBS containing 1 μg of W6/32 antibody and incubated at 4° C. for 30 minutes.
# Subsequently, cells were washed in PBS with 1% BSA (3×5 ml) and the pellet was resuspended in 50 μl of secondary anti-mouse Alexa 488 antibody (1:1000 in PBS with 0.1% BSA), incubated for 30 minutes in the dark, washed with PBS (3×5 ml) and resuspended in 500 μl of PBS. Binding of the W6/32 antibody to MHC class I molecules was analyzed by FACS on the Beckman Coulter ADCXL4C flow cytometer. As a positive control hepatitis B virus core antigen HBVc18-27 P6Y˜C ([…]) was used. As a negative control T2 cells were used, to which no peptide was added.
# Relative binding capacities of the peptides were expressed as the percent of the positive control signal (100%), normalized to the negative control (0%). A mean fluorescence that was at least 10% higher than the negative control level was considered positive binding.
Molecule,AVERAGE FRAGMENT LENGTH [1],NUMBER OF FRAGMENTS [1],% of glycopeptide [1],8-11 mers (%) [1] [%],class I binding activity [2],further results
"AHGVTSAPESRPAPGSTAPPA [GP5] (AHGVT(O‑glycan)SAPESRPAPGSTAPPA; not fully specified; reading uncertain; also: glycan structure not given here; listed as Homo sapiens) [MUC1 glycopeptide, glycosylated threonine within the VTS motif]",11.6,46,26%,79,–,AHG 8 to -11 [1]: 26%; PAP8 to -11 [1]: 47%; SAP8 to -11 [1]: 27%
"AHGVTSAPESRPAPGSTAPPA [GP6] (AHGVTSAPES(O‑glycan)RPAPGSTAPPA; reading uncertain; also: glycan structure not given here; listed as Homo sapiens) [MUC1 glycopeptide, glycosylated within the ESR motif]",10.6,46,98% and 96%,35,–,AHG 8 to -11 [1]: 55%; PAP8 to -11 [1]: 3%; SAP8 to -11 [1]: 42%
"AHGVTSAPESRPAPGSTAPPA [GP8] (AHGVTS(O‑glycan)APESRPAPGSTAPPA; reading uncertain; also: glycan structure not given here; listed as Homo sapiens) [chemically synthesized MUC1 derived glycopeptide, glycosylation site not readable]",10.5,46,21%,35,–,–
AHGVTSAPESRPAPGSTAPPA [P4] (fragment of digested MUC1; listed as Homo sapiens) [Peptide P4],11.6,31,0%,50,–,–
APESRPAP (fragment of MUC1; listed as Homo sapiens),–,–,–,–,considerable class I binding activity,–
APESRPAPG (fragment of MUC1; listed as Homo sapiens),–,–,–,–,considerable class I binding activity,–
APESRPAPGS (fragment of MUC1; listed as Homo sapiens),–,–,–,–,considerable class I binding activity,–
HGVTSAPESRPAPGSTAPPA [GP7],11.7,61,40% and 39%,29,–,AHG 8 to -11 [1]: 8%; PAP8 to -11 [1]: 31%; SAP8 to -11 [1]: 61%
PESRPAPGS (fragment of MUC1; listed as Homo sapiens),–,–,–,–,considerable class I binding activity,–
PESRPAPGST (fragment of MUC1; listed as Homo sapiens),–,–,–,–,considerable class I binding activity,–
S(-GalNAc)APDTRPAPG ({Ser(GalNAc)}-APDTRPAPG),–,–,–,–,–,ligation strength (binding to HLA-A0201) (HLA-A0201): strongly reduce binding affinity in comparison with the corresponding nonglycosylated peptide
SAPESRPAPG (fragment of MUC 1; listed as Homo sapiens),–,–,–,–,considerable class I binding activity,–
SAPESRPAPGS (fragment of MUC1; listed as Homo sapiens),–,–,–,–,considerable class I binding activity,–
ST(-GalNAc)APPAHGVT ({Ser-T(GalNAc)}-APPAHGVT),–,–,–,–,–,ligation strength (binding to HLA-A0201) (HLA-A0201): strongly reduce binding affinity in comparison with the corresponding nonglycosylated peptide
STAPPAHGV [STA9],–,–,–,–,–,ligation strength (binding to HLA-A0201) (HLA-A0201): strongest binders; change of ligation strength by introduction of GalNAc (HLA-A0201): reducing it to the level of the negative control
STAPPAHGVT [STA10],–,–,–,–,considerable class I binding activity,ligation strength (binding to HLA-A0201) (HLA-A0201): strongest binders; change of ligation strength by introduction of GalNAc (HLA-A0201): reducing it to the level of the negative control
"A(HGVTSAPESRPAPGSTAPPA)x3 (peptide, listed as Homo sapiens, Fragment of digested MUC1) AHGVTSAPESRPAPGSTAPPAHGVTSAPESRPAPGSTAPPAHGVTSAPESRPAPGSTAPPA",17.5,105,0%,26,–,–
